We go through two molecules from US20230105029A1 (CHIA TAI TIANQING PHARMACEUTICAL GROUP, published 2023).

The target of test [1] is T1, human IL4Rα expressed on 293F-IL4Rα cells (human, UniProt P24394 26-825).
T1 construct: whole, on cells; also called cell surface human IL4Rα
The test can be described thus: flow cytometry on 293F-IL4Rα cells.

Test [2] concerns the target T2, recombinant human IL4Rα-his protein (in house made) (human, UniProt P24394 26-232, limits assumed).
T2 construct: also called Human IL4Ra-his
The test can be described thus: competitive ELISA, blocks biotin-IL4Rα-his binding to coated Benchmark (competitor). On the procedure: The ability of the anti-IL4Rα antibodies of the disclosure to block benchmark-human IL4Rα binding was measured in a competitive ELISA assay. Briefly, the benchmark was coated on 96-well micro plates at 2 μg/mL in PBS, 100 μl per well, and incubated overnight at 4° C. The next day, plates were washed with wash buffer (PBS+0.05% w/v Tween-20, PBST), and blocked with 5% w/v non-fatty milk in PBST for 2 hours at 37° C. tiring plate blocking, the anti-IL4Rα antibodies of the disclosure or controls were diluted with biotin labeled human IL4Rα-his proteins (prepared in-house with SEQ ID NO: 57, 0.55 nM in 2.5% w/v non-fatty milk in PBST), starting at 100 nM with a 4-fold serial dilution, and incubated at 25° C. for 40 minutes. After plate washing, the antibody/IL4Rα-his mixtures were added to benchmark coated plates, 100 μl per well. After incubation at 37° C. for 40 minutes, plates were washed using wash buffer. Then the plates were added and incubated with 100 μl/well streptavidin conjugated HRP for 40 minutes at 37° C. to detect biotin-labeled human IL4Rα-his bound to plates. Plates were washed again using wash buffer. Finally, TMB was added and the reaction was stopped using 1M H₂SO₄, and the absorbance was read at 450 nm. Data was analyzed using Graphpad Prism software and IC₅₀ values were reported.
Background: An ELISA detects its analyte on a solid surface through an enzyme-linked reagent.

Test [3] deals with T2, recombinant human IL4Rα-his protein (in …). Briefly: competitive ELISA, blocks biotin-IL4 binding to coated IL4Rα-his. How it is done:
Serially diluted anti-IL4Rα antibodies or the controls (starting at 80 nM with a 4-fold serial dilution) in 2.5% w/v non-fatty milk in PBST, 100 μl per well, were added to the IL4Rα bound plates, and incubated with the human IL4Rα-his proteins at 37° C. for 40 minutes. Plates were washed 4 times using wash buffer, and then added and incubated for 40 minutes at 37° C. with 100 μl/well of 0.56 nM biotin-labeled human IL4 protein (Sino biological inc., Cat #11846-HNAE). Plates were washed again using wash buffer. Thereafter, the plates were added with 100 μl/well of streptavidin conjugated HRP (1:10000 dilution in PBST buffer, Jackson Immunoresearch, Cat #016-030-084) and incubated for 40 minutes at 37° C. Plates were washed again using wash buffer. Finally, TMB was added and the reaction was stopped using 1M H₂SO₄, and the absorbance was read at 450 nm. Data was analyzed using Graphpad Prism software and IC₅₀ values were reported.

Test [4] has as its target T3, marmoset monkey IL4Rα-his protein (marmoset monkey).
T3 construct: Custom made by Sino biological; no cleavage site stated; also called cal-IL4Rα-his; Cal-IL4Rα
T3 chain: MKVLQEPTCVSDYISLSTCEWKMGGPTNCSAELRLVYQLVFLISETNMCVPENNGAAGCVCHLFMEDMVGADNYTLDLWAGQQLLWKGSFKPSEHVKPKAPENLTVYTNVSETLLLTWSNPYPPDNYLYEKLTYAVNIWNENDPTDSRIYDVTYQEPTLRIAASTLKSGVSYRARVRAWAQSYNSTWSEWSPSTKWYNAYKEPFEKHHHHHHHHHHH
The test can be described thus: indirect ELISA on coated cal-IL4Rα-his.

For test [5], the target named is T3, marmoset monkey IL4Rα-his protein. Briefly: indirect ELISA, coated cal-IL4Rα-his.
For test [6], the target named is T2, recombinant human IL4Rα-his protein (in …). Briefly: capture ELISA, biotin-IL4Rα-his.
The target in test [7] is T4, cynomolgus monkey IL4Rα-his protein (cynomolgus monkey, UniProt A0A2K5V580 33-239).
T4 construct: Bought protein; also called Cynomolgus IL4Rα; Cyno-IL4Rα-his; not shown: his tag
The test can be described thus: indirect ELISA on coated cynomolgus IL4Rα-his.

The target of test [8] is T1, human IL4Rα expressed on 293F-IL4Rα …. Briefly: flow cytometry on 293F-IL4Rα cells, blocked ligand biotin human IL4. In general terms: In flow cytometry, cells or beads pass a laser one at a time.
Test [9] concerns the target T2, recombinant human IL4Rα-his protein (in …). Briefly: competitive ELISA: coated human IL4Rα-his, blocked ligand biotin human IL4.
Test [10] addresses T4, cynomolgus monkey IL4Rα-his protein. The test can be described thus: indirect ELISA, coated cyno IL4Rα-his.
Test [11] addresses T2, recombinant human IL4Rα-his protein (in …). The test can be described thus: SPR (Biacore), antibody captured, IL4Rα-his flowed.
The target of test [12] is T1, human IL4Rα expressed on 293F-IL4Rα …. The test can be described thus: flow cytometry, blocks biotin-IL4 binding to 293F-IL4Rα cells. How it is done:
Then, 1×10⁵ cells per well in 96 well-plates were incubated in 100 μL of the anti-IL4Rα antibodies or controls of various concentrations (starting at 80 nM with a 4-fold serial dilution) in FACS buffer for 40 minutes on ice. The plates were washed twice with FACS buffer, and added and incubated for 40 minutes at 4° C. in dark with 100 μl/well 1.67 nM biotin-labeled human IL4 protein (Sino biological inc., Cat #11846-HNAE). The plates were washed twice with FACS buffer, and then added and incubated for 40 minutes at 4° C. in dark with 100 μl/well R-Phycoerythrin Streptavidin (1:500 dilution in FACS buffer, Jackson Immunoresearch, Cat #016-110-084). Cells were washed twice and resuspended in FACS buffer. Fluorescence was measured using a Becton Dickinson FACS Canto II-HTS equipment. Data was analyzed using Graphpad Prism software and IC₅₀ values were reported.

Test [13] concerns the target T2, recombinant human IL4Rα-his protein (in …). Briefly: SPR (Biacore), antibody captured, IL4Rα-his flowed. The source holds these as a separate data set.
Test [14] addresses T1, human IL4Rα expressed on 293F-IL4Rα …. Briefly: flow cytometry, 293F-IL4Rα cells. How it is done:
Then, 2×10⁵ cells per well in 96 well-plates were incubated in 100 μL of the anti-IL4Rα antibodies or controls of various concentrations (starting at 80 nM with a 4-fold serial dilution) in FACS buffer for 40 minutes on ice. […] Following an incubation of 40 minutes at 4° C. in dark, cells were washed three times and resuspended in FACS buffer. Fluorescence was measured using a Becton Dickinson FACS Canto II-HTS equipment. Data was analyzed using Graphpad Prism software and EC₅₀ values were reported.

Test [15] addresses T2, recombinant human IL4Rα-his protein (in …). Briefly: competitive ELISA: antibody mixed with biotin human IL4Rα-his, competitor plate-coated Benchmark.
Test [16] shares this target. Briefly: capture ELISA: antibody captured on anti-IgG Fc plate, biotin human IL4Rα-his detected.
Test [17] concerns the target human IL4Rα expressed on HEK293T-IL4Rα-STAT6-STAT6LUC-LB2 cells (human, UniProt P24394 26-825). Briefly: cell-based or functional assay.

Like-named read-outs stand apart in the source and are kept apart here.

B1: huC2C1A1A1-V14 (antibody, human IgG4 S228P, kappa, V domains shown)
VH: EVQLVESGGGLVQPGGSLRLSCAASGFTFSTYGMSWVRQAPGKGLVWVATINSNGGSTSYPDSVKGRFTISRDNAKNTLYLQMNSLRAEDTAVYYCARFFRFRNAMDYWGQGTLVTVSS
VL: DIQMTQSPSSLSASVGQRVTITCRTSENIYSYLAWYQQKQGKPPRFLIYNAKTLAEGVPSRFSGSGSGTEFTLTITSLQAEDFGVYYCQHYYGPPTWTFGPGTKLEIKR
notes: Humanized, human IgG4/kappa
As for B1, the EC50 in test [1] worked out at 0.39 nM; in [4], 0.555 nM; in test [5] it was 0.55 nM; in test [6] it was 0.06 nM; in test [7] it was 0.677 nM; in test [10], 0.68 nM. Moreover, the EC50 was 0.39 nM in test [14] and 0.0616 nM in test [16]. Also, the half-maximal inhibitory concentration (IC50) was 0.17 nM in test [2]; 2.17 nM in test [3]; 0.578 nM in test [8]; 2.17 nM in test [9]; 0.58 nM in test [12]; 0.171 nM in [15]. Further, the Dissociation % in test [11] stood at 0.8%. Further, the “End (RU)” value in test [11] was 50.5 RU. In addition, the Kd in test [11] was < 0.0654 nM; in [13], 0.642 nM. Further, the “Start (RU)” value in test [11] stood at 50.1 RU. Moreover, the koff in test [11] was < 1e-05 s⁻¹. In test [11], the kon was determined as 153000 M⁻¹ s⁻¹. Besides, the “Inhibition on IL4 induced STAT6 phosphorylation (IC50, nM)” value in [17] was found to be 0.64 nM. The “Inhibition on IL13 induced STAT6 phosphorylation (IC50, nM)” value in [17] was 0.73 nM.

B2: huC2C1A1A1-V15 (antibody, human IgG4, V domains shown)
VH: EVQLVESGGGLVQPGGSLRLSCAASGFTFSTYGMSWVRQAPGKGLVWVATINSNGGSTSYPDSVKGRFTISRDNAKNTLYLQMNSLRAEDTAVYYCARFFRFRNAMDYWGQGTLVTVSS
VL: DIQMTQSPSSLSASVGDRVTITCRTSENIYSYLAWYQQKPGKAPKFLVYNAKTLAEGVPSRFSGSGSGTDFTLTISSLQPEDFATYYCQHYYGPPTWTFGQGTKVEIKR
notes: Humanized, human IgG4/kappa
Regarding B2, the EC50 in [1] was determined as 0.311 nM; in [4] it was 0.412 nM; in [5] it was 0.41 nM; in test [6], 0.05 nM; in test [7], 0.517 nM; in [10], 0.52 nM. Further, the EC50 in [14] worked out at 0.31 nM; in test [16], 0.0474 nM. Further, the half-maximal inhibitory concentration (IC50) in [2] was 0.16 nM; in test [3] it was 2.03 nM; in test [8], 0.502 nM; in test [9], 2.03 nM; in [12], 0.5 nM; in [15], 0.159 nM. The Dissociation % in test [11] was 0.29%. Moreover, the “End (RU)” value in test [11] was 69.2 RU. The Kd in [11] is < 0.0435 nM; in [13] it was 0.447 nM. Also, the “Start (RU)” value in test [11] was 69 RU. In test [11], the koff was < 1e-05 s⁻¹. In addition, the kon in test [11] was 230000 M⁻¹ s⁻¹. In addition, the “Inhibition on IL4 induced STAT6 phosphorylation (IC50, nM)” value in test [17] worked out at 0.61 nM. Further, the “Inhibition on IL13 induced STAT6 phosphorylation (IC50, nM)” value in test [17] stood at 0.6 nM.

What is called EC50 is the concentration that produces a half-maximal response. Broadly, the IC50 is the concentration needed to halve the response being measured. The term Kd denotes the constant that tells how readily two partners part at equilibrium. Broadly, the koff is a measure of how fast the partners let go of each other. Broadly, the kon is the rate constant with which the complex forms.
